According to patent US20250339569A1 (3B PHARMACEUTICALS, published 2025):
Starred links: 1 amine or outer side, 2 acyl side, 3 side chain; linkers in the order of their positions; H or OH if unused. Positions of bridges follow the written chain, without caps; N, C: chain ends. Non-standard residues stand in square brackets, D forms with d. Primed or numbered codes have the meaning given here. *: point of attachment. Eem = S-benzyl-cysteine-sulfone, O=C([C@H](CS(=O)(=O)Cc1ccccc1)N[*:1])[*:2]; APAc″ = 2-(4-(amino)piperidin-1-yl)acetic acid, NC1CCN(CC(=O)*)CC1; DOTA = O=C(O)CN1CCN(CC(=O)O)CCN(CC(=O)*)CCN(CC(=O)O)CC1; dmo = (R)-dimethylornithine (D form); mXylylene = c1cc(C[*:1])cc(C[*:2])c1; Orn(Me2) = CN(C)CCC[C@H](N)C(=O)O; NMeD = CN[C@@H](CC(=O)O)C(=O)O; Pen = CC(C)(S)[C@H](N)C(=O)O; NHMe2Nph = not defined here; NMeS = CN[C@@H](CO)C(=O)O; hSer = N[C@@H](CCO)C(=O)O; 2Quyl = not defined here; AGLU′ = not defined here; Orn = NCCC[C@H](N)C(=O)O; APAc = not defined here; Dap = NC[C@H](N)C(=O)O; Bn = c1ccc(C*)cc1

B1: 3BP-3905 (peptide)
peptide: {DOTA-APAc}-VYCE[dP]DWLTWSC-NH2
modifications: linker 3-12 via mXylylene; reading uncertain; also: ['indium complexed by DOTA']
B2: 3BP-3934 (peptide)
peptide: {DOTA}-YCE[dP]KWLEWSC-NH2
modifications: linker 2-11 via mXylylene; lactam 5-8
SMILES: CC(C)C[C@@H]1NC(=O)[C@H](Cc2c[nH]c3ccccc23)NC(=O)[C@@H]2CCCCNC(=O)CC[C@H](NC1=O)C(=O)N[C@@H](Cc1c[nH]c3ccccc13)C(=O)N[C@@H](CO)C(=O)N[C@H](C(N)=O)CSCc1cccc(c1)CSC[C@H](NC(=O)[C@H](Cc1ccc(O)cc1)NC(=O)CN1CCN(CC(=O)O)CCN(CC(=O)O)CCN(CC(=O)O)CC1)C(=O)N[C@@H](CCC(=O)O)C(=O)N1CCC[C@@H]1C(=O)N2
B3: 3BP-4005 (peptide)
peptide: Ac-VYCE[dP][Orn]WLDWSC-NH2
modifications: linker 3-12 via mXylylene; lactam 6-9
SMILES: CC(=O)N[C@H](C(=O)N[C@@H](Cc1ccc(O)cc1)C(=O)N[C@H]1CSCc2cccc(c2)CSC[C@@H](C(N)=O)NC(=O)[C@H](CO)NC(=O)[C@H](Cc2c[nH]c3ccccc23)NC(=O)[C@@H]2CC(=O)NCCC[C@H](NC(=O)[C@H]3CCCN3C(=O)[C@H](CCC(=O)O)NC1=O)C(=O)N[C@@H](Cc1c[nH]c3ccccc13)C(=O)N[C@@H](CC(C)C)C(=O)N2)C(C)C
B4: 3BP-3963 (peptide)
peptide: Ac-VYCE[dP]KWLEWS[Pen]-NH2
modifications: linker 3-12 via mXylylene; lactam 6-9
SMILES: CC(=O)N[C@H](C(=O)N[C@@H](Cc1ccc(O)cc1)C(=O)N[C@H]1CSCc2cccc(c2)CSC(C)(C)[C@@H](C(N)=O)NC(=O)[C@H](CO)NC(=O)[C@H](Cc2c[nH]c3ccccc23)NC(=O)[C@@H]2CCC(=O)NCCCC[C@H](NC(=O)[C@H]3CCCN3C(=O)[C@H](CCC(=O)O)NC1=O)C(=O)N[C@@H](Cc1c[nH]c3ccccc13)C(=O)N[C@@H](CC(C)C)C(=O)N2)C(C)C
B5: 3BP-4257 (peptide)
peptide: {DOTA}-SDCE[dP]DWLTW[Dap]C-NH2
modifications: lactam 11-2; linker 3-12 via mXylylene
SMILES: CC(C)C[C@@H]1NC(=O)[C@H](Cc2c[nH]c3ccccc23)NC(=O)[C@H](CC(=O)O)NC(=O)[C@H]2CCCN2C(=O)[C@H](CCC(=O)O)NC(=O)[C@@H]2CSCc3cccc(c3)CSC[C@@H](C(N)=O)NC(=O)[C@H](CNC(=O)C[C@H](NC(=O)[C@H](CO)NC(=O)CN3CCN(CC(=O)O)CCN(CC(=O)O)CCN(CC(=O)O)CC3)C(=O)N2)NC(=O)[C@H](Cc2c[nH]c3ccccc23)NC(=O)[C@H]([C@@H](C)O)NC1=O

Biological target: human carbonic anhydrase 9 (CAIX) (human, UniProt Q16790 38-459)
Assay: FACS competition on HT-29 cells, competitor tracer 3BP-2776; category A = pIC50 >8.0
Protocol: CAIX-expressing human HT-29 colorectal cancer cells (DSMZ, RRID: CVCL_0320) were cultured in McCoys's 5A modified medium (Biochrom, #F1015) including 10% fetal calf serum (FCS), 2 mM L-glutamine, 100 U/ml penicillin and 100 μg/mL streptomycin. Cells were detached with Accutase (Biolegend, #423201) and washed in FACS buffer (PBS including 1% FCS). Cells were diluted in FACS buffer to a final concentration of 500.000 cells per ml. 200 μL of the cell suspension were transferred to a u-shaped non-binding 96-well plate (Greiner) and cells were washed in ice-cold FACS buffer.
When biotinylated compounds were used an additional incubation step with 1 μg/mL APC-Streptavidin (Miltenyi; #130-106-791) in 50 μL FACS buffer for 30 minutes on ice was performed.
Cells were washed twice with ice-cold FACS buffer and analyzed in an Attune NxT flow cytometer (Thermo Fisher). Median fluorescence intensities (MFI) of the APC/Cy5-channel were calculated by Attune NxT software.

pIC50, > 8 pic50:
{DOTA-APAc}-VYCQ[dP]DWLTWSC-NH2 (linker 3-12 via mXylylene; reading uncertain) [3BP-4104]
{DOTA-APAc}-VSCE[dP]DWLTWSC-NH2 (linker 3-12 via mXylylene; reading uncertain) [3BP-4105]
{DOTA-APAc}-VYC[NMeS][dP]DWLTWSC-NH2 (linker 3-12 via mXylylene; reading uncertain) [3BP-4108]
{DOTA-APAc}-VE(AGLU′)CE[dP]DWLTWSC-NH2 (linker 3-12 via mXylylene; reading uncertain) [3BP-4112]
{DOTA-APAc}-VYCE[dE](AGLU′)DWLTWSC-NH2 (linker 3-12 via mXylylene; reading uncertain) [3BP-4119]
{DOTA-APAc}-VYCE[dP]DWLE(AGLU′)WSC-NH2 (linker 3-12 via mXylylene; reading uncertain) [3BP-4121]
{DOTA-APAc}-VYCE[dP]DWLTWEC-NH2 (linker 3-12 via mXylylene; not fully specified (residue 11); reading uncertain) [3BP-4122]
{DOTA-APAc}-VYCE[dP]Y(Bn)WLTWSC-NH2 (linker 3-12 via mXylylene; not fully specified; reading uncertain) [3BP-4127]
{DOTA-APAc}-VYCE[dP]C(Bn)WLTWSC-NH2 (linker 3-12 via mXylylene; not fully specified; reading uncertain) [3BP-4128]
{DOTA-APAc}-VYCE[dP]C(2Quyl)WLTWSC-NH2 (linker 3-12 via mXylylene; not fully specified; reading uncertain) [3BP-4129]
{DOTA-APAc}-VYCE[dP]DC(Bn)LTWSC-NH2 (linker 3-12 via mXylylene; not fully specified; reading uncertain) [3BP-4130]
{DOTA-APAc}-VYCE[dP]DYLTWSC-NH2 (linker 3-12 via mXylylene; not fully specified; reading uncertain) [3BP-4136]
{DOTA-APAc″}-VYCE[dP]E(NHMe2Nph)WLTWSC-NH2 (linker 3-12 via mXylylene; reading uncertain) [3BP-4215]
B1
{DOTA}-YCE[dP]DWLTWSC-NH2 (linker 2-11 via mXylylene; also: ['indium complexed by DOTA']) [3BP-3906]
B2
B3
{DOTA-APAc}-VYCE[dP][hSer]WLTWSC-NH2 (linker 3-12 via mXylylene; reading uncertain) [3BP-4102]
{DOTA-APAc}-VYCE[dP][Eem]WLTWSC-NH2 (linker 3-12 via mXylylene; not fully specified; reading uncertain) [3BP-4123]
B4
{DOTA-APAc}-V[Orn(Me2)]CE[dP]DWLTWSC-NH2 (linker 3-12 via mXylylene; reading uncertain) [3BP-4095]
{DOTA-APAc″}-V[Dap]CE[dP]DWLTWDC-NH2 (lactam 2-11; linker 3-12 via mXylylene) [3BP-4176]
{DOTA-APAc″}-V[Dap]CE[dP]DWLTWEC-NH2 (lactam 2-11; linker 3-12 via mXylylene) [3BP-4177]
{DOTA-APAc}-VYC[Orn(Me2)][dP]DWLTWSC-NH2 (linker 3-12 via mXylylene; reading uncertain) [3BP-4096]
{DOTA-APAc}-VYCE[dmo]DWLTWSC-NH2 (linker 3-12 via mXylylene; reading uncertain) [3BP-4097]
{DOTA-APAc}-VYCE[dP]DWL[Orn(Me2)]WSC-NH2 (linker 3-12 via mXylylene; reading uncertain) [3BP-4099]
{DOTA-APAc″}-VDCE[dP]DWLTW[Dap]C-NH2 (lactam 2-11; linker 3-12 via mXylylene) [3BP-4174]
{DOTA-APAc}-VYCE[dP]DWLTW[Orn(Me2)]C-NH2 (linker 3-12 via mXylylene; reading uncertain) [3BP-4100]
{DOTA-APAc″}-VECE[dP]DWLTW[Dap]C-NH2 (lactam 2-11; linker 3-12 via mXylylene) [3BP-4175]
B5
{DOTA-APAc}-VYC[hSer][dP]DWLTWSC-NH2 (linker 3-12 via mXylylene; reading uncertain) [3BP-4101]
{DOTA-APAc}-VYCE[dP][NMeD]WLTWSC-NH2 (linker 3-12 via mXylylene; reading uncertain) [3BP-4107]
